Reference: patent publication US20240254222A1 (Bayer, published 2024)
Each block holds one binder with its values, some of them ahead of it.

Key:
[1] = molecular target: T1, Sema3B (R&D Systems) (Homo sapiens (Human), UniProt Q13214 25-749); assay: ELISA
T1 sequence: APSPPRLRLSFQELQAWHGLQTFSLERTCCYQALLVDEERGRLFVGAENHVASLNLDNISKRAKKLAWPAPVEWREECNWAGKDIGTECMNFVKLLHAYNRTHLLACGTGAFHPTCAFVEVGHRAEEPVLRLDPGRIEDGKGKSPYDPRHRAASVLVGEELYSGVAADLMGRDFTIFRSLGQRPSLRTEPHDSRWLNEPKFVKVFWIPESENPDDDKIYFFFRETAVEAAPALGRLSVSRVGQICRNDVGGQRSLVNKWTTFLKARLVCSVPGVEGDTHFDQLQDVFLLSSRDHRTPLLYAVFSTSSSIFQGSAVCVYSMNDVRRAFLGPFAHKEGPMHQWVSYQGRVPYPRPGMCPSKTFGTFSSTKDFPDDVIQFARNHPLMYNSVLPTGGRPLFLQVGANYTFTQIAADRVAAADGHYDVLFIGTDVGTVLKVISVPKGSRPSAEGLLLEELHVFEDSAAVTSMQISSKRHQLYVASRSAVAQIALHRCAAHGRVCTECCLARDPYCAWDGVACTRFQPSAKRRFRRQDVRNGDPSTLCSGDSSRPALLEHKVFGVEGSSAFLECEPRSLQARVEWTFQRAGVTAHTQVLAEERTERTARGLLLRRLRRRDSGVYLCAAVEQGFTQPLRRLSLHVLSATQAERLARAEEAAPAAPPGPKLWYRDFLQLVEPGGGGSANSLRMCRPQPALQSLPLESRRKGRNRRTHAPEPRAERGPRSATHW

[2] = molecular target: T2, Sema3D (R&D Systems) (Homo sapiens (Human), UniProt O95025 37-777); assay: ELISA
T2 sequence: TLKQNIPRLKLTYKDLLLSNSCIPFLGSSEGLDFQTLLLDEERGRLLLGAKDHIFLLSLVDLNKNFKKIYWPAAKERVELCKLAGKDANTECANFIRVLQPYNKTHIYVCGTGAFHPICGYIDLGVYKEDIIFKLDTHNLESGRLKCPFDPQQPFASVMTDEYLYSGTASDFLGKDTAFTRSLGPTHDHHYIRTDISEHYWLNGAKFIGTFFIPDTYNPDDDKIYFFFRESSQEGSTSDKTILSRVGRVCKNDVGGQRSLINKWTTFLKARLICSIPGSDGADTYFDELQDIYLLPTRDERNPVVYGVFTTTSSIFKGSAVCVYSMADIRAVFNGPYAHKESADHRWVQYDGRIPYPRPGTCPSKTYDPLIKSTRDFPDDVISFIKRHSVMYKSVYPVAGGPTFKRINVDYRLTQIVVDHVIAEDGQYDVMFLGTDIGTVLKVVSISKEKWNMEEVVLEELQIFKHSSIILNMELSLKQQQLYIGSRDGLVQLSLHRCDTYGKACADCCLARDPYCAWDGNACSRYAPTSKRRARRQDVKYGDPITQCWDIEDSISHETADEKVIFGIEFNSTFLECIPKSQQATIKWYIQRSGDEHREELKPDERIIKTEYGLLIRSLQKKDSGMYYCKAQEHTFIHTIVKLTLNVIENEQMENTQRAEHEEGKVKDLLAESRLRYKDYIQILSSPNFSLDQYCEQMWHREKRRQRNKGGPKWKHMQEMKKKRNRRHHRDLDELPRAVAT

[3] = molecular target: T3, Human Semaphorin3A-Fc (R&D Systems), TPP-13211 (human); assay: SPR, captured IgG1, Sema3A-Fc analyte
T3 construct: R&D Systems 1250-S3; also called recombinant human Sema3A-Fc chimera
Experimental: (§1) To assess the binding kinetics and affinity of anti-Sema3A antibodies as well as their species cross-reactivity profile, binding assays were conducted using surface plasmon resonance (SPR). Binding assays were performed on a Biacore T200 instrument or on a Biacore 8K+ instrument (Cytiva) at 25° C. using assay buffer HBS P+, 300 mM NaCl, 0.75 mM CaCl₂, 2.5 mM MgCl₂, 1 mg/ml BSA, 0.05% NaN₃. Antibodies were captured either via anti-human Fc IgGs (“Human antibody capture kit”, Order No. BR100839, Cytiva) or in case of Fc-tagged analytes by anti-human Fab IgGs (“Human Fab capture kit”, Order No. 28958325, Cytiva) covalently amine coupled to a Series S CM5 sensor chip (Cytiva). The amine coupling was carried out according to the manufacturer's instructions using 1-ethyl-3-(3-dimethylaminopropyl) carbodiimide hydrochloride (EDC), N-hydroxysuccinimide (NHS) and ethanolamine HCl, pH 8.5 (“Amine Coupling Kit” BR-1000-50, Cytiva.). For phage display hits Fc-tagged human and mouse Sema3A was used as analytes in a concentration range from 1.56-200 nM. Human, mouse, cynomolgus, rat, dog and pig monovalent Sema3A domain were used as analytes in a concentration series from […] in multi cycle kinetics mode or in 100 nM for binding analysis only. The sensor surface was regenerated with glycine pH 2.0 after each antigen injection. Obtained sensorgrams were double referenced (subtraction of reference flow cell signal and buffer injection) and were fitted to a 1:1 Langmuir binding model to derive kinetic data using the Biacore T200 Evaluation software.

[4] = molecular target: T4, Mouse Semaphorin3A-Fc (R&D Systems), TPP-13357 (mouse, UniProt O08665 21-747); assay: SPR, captured IgG1, Sema3A-Fc analyte
T4 construct: range 21-747; R&D Systems 5926-S3; also called mouse Sema3A-Fc
T4 sequence (looked up): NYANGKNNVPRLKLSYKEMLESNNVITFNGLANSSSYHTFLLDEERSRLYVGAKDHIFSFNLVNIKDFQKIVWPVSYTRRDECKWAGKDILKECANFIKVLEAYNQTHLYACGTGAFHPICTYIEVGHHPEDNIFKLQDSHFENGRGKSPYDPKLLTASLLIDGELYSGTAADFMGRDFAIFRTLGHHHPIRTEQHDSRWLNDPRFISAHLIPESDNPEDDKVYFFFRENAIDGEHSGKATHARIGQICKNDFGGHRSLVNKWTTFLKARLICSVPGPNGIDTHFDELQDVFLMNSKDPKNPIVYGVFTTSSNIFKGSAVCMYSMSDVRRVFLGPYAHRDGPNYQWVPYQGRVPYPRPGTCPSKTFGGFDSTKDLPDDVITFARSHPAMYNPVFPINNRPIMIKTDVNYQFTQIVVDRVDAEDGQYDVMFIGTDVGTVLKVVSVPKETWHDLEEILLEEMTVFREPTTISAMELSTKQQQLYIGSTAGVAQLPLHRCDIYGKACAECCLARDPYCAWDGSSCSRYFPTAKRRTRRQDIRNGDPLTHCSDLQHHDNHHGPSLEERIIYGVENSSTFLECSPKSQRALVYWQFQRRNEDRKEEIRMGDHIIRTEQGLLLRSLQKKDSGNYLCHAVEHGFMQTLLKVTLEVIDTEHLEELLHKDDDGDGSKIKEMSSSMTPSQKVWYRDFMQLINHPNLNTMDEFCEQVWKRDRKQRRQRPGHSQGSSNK
Experimental: as §1

T3 sequence (chain, as listed by the source limits assumed): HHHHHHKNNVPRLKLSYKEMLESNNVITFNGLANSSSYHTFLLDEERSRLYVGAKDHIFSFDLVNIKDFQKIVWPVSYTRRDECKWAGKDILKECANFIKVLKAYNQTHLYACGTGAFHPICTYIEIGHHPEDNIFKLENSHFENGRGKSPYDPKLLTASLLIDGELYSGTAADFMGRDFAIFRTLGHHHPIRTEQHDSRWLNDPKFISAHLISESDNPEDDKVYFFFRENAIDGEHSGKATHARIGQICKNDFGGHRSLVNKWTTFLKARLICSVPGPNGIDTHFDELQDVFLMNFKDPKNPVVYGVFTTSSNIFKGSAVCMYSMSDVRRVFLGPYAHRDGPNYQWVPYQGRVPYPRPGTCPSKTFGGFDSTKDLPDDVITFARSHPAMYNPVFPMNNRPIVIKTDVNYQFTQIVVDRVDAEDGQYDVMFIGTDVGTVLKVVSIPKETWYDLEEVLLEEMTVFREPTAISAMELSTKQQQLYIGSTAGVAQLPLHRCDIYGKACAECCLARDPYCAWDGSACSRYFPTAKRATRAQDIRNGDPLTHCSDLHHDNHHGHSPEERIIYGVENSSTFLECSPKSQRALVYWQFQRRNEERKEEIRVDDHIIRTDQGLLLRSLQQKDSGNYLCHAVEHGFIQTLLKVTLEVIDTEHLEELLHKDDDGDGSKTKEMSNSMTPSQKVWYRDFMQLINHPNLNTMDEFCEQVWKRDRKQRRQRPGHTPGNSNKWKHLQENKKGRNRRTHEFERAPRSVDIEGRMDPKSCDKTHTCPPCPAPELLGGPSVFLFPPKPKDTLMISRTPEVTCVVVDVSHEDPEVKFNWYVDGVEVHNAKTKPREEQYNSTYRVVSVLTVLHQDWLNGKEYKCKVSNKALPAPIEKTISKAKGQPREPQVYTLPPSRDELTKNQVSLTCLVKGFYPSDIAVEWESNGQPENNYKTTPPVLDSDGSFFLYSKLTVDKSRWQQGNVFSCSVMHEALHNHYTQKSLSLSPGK

binding result [1]: no binding | binding result [2]: no binding | Kd [3]: 18 nM | Kd [4]: 18 nM
B1: TPP-15374 (antibody, human IgG1, lambda, V domains shown)
VH: EVQLLESGGGLVQPGGSLRLSCAASGFTFSSYEMNWVRQAPGKGLEWVSGISWNSGSIGYADSVKGRFTISRDNSKNTLYLQMNSLRAEDTAVYYCARSGYSSSWFDPDFDYWGQGTLVTVSS
VL: QSVLTQPPSASGTPGQRVTISCTGSSSNIGAGYDVHWYQQLPGTAPKLLIYGNSNRPSGVPDRFSGSKSGTSASLAISGLRSEDEADYYCSSYAGSNPYVVFGGGTKLTVLG
notes: human IgG1; also called IgG1, hit from panning; parental mAb

binding result [1]: no binding | binding result [2]: no binding | Kd [3]: 2.8 nM | Kd [4]: 3.2 nM
B2: TPP-15370 (antibody, human IgG1, lambda, V domains shown)
VH: EVQLLESGGGLVQPGGSLRLSCAASGFTFSSYGMHWVRQAPGKGLEWVSAIGTGGDTYYADSVMGRFTISRDNSKNTLYLQMNSLRAEDTAVYYCARRDDYTSRDAFDVWGQGTLVTVSS
VL: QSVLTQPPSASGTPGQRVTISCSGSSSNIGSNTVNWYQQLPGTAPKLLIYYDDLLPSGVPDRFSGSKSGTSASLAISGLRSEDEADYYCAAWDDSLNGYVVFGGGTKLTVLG
notes: as for B1
